Data: publication PMC3433420, “Comprehensive Binary Interaction Mapping of SH2 Domains via Fluorescence Polarization Reveals Novel Functional Diversification of ErbB Receptors” (PLoS ONE, 2012)
Non-standard residues stand in square brackets, D forms with d. No end group written: not given here. pY = N[C@@H](Cc1ccc(OP(=O)(O)O)cc1)C(=O)O; Rhodamine = not defined here; rhodamine = not defined here

Columns and labels:
Conditions in all cases: both partners purified
[1] = biological target: T1, PLCG1 C-terminal SH2 domain (human); assay: SPR; Biacore 3000; 6X His SH2 proteins held on a Ni-NTA chip, dye-free peptides in solution, equilibrium
T1 construct: PLCG1, human; source: bacterial expression, purified
T1 sequence (P19174 whole entry, looked up): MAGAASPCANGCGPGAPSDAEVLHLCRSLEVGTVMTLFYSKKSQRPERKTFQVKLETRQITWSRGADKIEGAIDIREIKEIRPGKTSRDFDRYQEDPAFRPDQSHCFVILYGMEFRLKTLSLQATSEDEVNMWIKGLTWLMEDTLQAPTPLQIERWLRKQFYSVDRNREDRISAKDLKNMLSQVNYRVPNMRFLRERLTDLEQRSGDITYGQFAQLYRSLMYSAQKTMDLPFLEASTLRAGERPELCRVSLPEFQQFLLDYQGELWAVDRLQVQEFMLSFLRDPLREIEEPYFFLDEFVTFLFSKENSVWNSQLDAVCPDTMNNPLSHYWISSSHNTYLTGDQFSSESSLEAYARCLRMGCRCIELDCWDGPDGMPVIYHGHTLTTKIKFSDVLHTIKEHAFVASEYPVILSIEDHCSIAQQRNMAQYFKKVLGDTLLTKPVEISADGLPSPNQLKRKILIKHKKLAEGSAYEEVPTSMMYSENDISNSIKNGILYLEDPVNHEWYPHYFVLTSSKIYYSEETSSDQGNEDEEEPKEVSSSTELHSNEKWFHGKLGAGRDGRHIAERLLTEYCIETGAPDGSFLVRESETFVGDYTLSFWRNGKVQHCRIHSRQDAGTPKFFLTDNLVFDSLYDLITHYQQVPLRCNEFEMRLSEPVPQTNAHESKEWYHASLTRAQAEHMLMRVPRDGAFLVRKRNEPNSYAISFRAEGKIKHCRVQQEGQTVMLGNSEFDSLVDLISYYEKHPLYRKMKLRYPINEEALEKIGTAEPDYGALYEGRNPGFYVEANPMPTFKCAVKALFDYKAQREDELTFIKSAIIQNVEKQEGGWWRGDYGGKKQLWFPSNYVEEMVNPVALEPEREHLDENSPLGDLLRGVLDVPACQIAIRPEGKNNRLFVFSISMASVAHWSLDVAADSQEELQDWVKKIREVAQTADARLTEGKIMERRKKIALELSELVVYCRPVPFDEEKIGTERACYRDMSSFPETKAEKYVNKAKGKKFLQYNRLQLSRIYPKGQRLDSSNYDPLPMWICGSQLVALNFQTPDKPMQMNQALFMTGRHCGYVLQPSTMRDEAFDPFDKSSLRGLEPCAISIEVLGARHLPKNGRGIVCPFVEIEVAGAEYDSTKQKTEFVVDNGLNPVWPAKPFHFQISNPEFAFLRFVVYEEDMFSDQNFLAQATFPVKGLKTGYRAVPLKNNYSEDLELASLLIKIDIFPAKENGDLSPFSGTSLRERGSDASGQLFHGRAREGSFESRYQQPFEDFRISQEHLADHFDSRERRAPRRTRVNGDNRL

[2] = biological target: T2, PIK3R1 N-terminal SH2 domain (human); assay: as above
T2 construct: PIK3R1, human; source: bacterial expression, purified

[3] = biological target: T3, PIK3R3 C-terminal SH2 domain (human); assay: as above
T3 construct: PIK3R3, human; source: bacterial expression, purified

GRB2 SH2 domain = biological target: T4, GRB2 SH2 domain (human, UniProt P62993 60-152); assay: fluorescence polarisation; competition: rhodamine peptide 10 nM, protein at four times its KD, unlabeled competitor peptide in 11 serial 1:3 dilutions; Ki from IC50, one-site model
T4 construct: GRB2, human; source: bacterial expression, purified
T4 sequence (P62993 60-152): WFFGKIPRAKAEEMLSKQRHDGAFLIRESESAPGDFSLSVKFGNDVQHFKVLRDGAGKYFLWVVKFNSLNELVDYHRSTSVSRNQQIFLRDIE

[4] = biological target: T1, PLCG1 C-terminal SH2 domain; assay: fluorescence polarisation; saturation binding in solution: rhodamine peptide fixed at 10 nM, protein titrated 0.002-10 uM, 20 min at room temperature; assay buffer 20 mM HEPES, 100 mM KCl, 0.1% Tween-20, 5 mM DTT, pH 7.8; apparent KD
[5] = biological target: T2, PIK3R1 N-terminal SH2 domain; assay: as above
[6] = biological target: T3, PIK3R3 C-terminal SH2 domain; assay: as above
PTK6 SH2 domain [7] = biological target: T5, PTK6 SH2 domain (human, UniProt Q13882 78-170); assay: fluorescence polarisation; competition; fluorescent peptide 10 nM, protein at four times the calculated KD, unlabeled competitor peptide at 11 serial 1:3 dilutions; at least 20 minutes; IC50 from a four-parameter log-logistic fit, one-site competition model
T5 construct: PTK6, human; SH2 domain; source: bacterial expression culture, purified
T5 sequence (Q13882 78-170): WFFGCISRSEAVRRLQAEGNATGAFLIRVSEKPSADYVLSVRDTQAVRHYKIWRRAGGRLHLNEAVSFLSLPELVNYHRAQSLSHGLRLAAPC

PTK6 SH2 domain [8] = biological target: T6, PTK6 SH2 domain (human, UniProt Q13882 78-170); assay: fluorescence polarisation; saturation binding in solution: rhodamine peptide fixed at 10 nM, protein titrated 0.002-10 uM, 20 min at room temperature; assay buffer 20 mM HEPES, 100 mM KCl, 0.1% Tween-20, 5 mM DTT, pH 7.8; apparent KD
T6 construct: PTK6, human; source: bacterial expression, purified
T6 sequence (Q13882 78-170): as above

GRB7 SH2 domain = biological target: T7, GRB7 SH2 domain (human, UniProt Q14451 431-527); assay: fluorescence polarisation; competition: rhodamine peptide 10 nM, protein at four times its KD, unlabeled competitor peptide in 11 serial 1:3 dilutions; Ki from IC50, one-site model
T7 construct: GRB7, human; source: bacterial expression, purified
T7 sequence (Q14451 431-527): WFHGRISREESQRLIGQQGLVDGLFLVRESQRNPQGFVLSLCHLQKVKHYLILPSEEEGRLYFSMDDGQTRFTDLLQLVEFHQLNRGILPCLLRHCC

PTK6 SH2 domain [9] = biological target: T5, PTK6 SH2 domain; assay: fluorescence polarisation; saturation binding in solution; rhodamine-labeled peptide fixed at 10 nM, protein titrated 0.002-10 µM (twelve two-fold dilutions); 20 minutes at room temperature in the dark; assay buffer 20 mM HEPES, 100 mM KCl, 0.1% Tween-20, 5 mM DTT, pH 7.8; apparent KD; assay detection threshold of 20 µM

DPQD[pY]LLLINCQD [Gab1 pY183 phosphopeptide, dye-free]
Kd [1]: 146 nM | Kd [2]: 722 nM | Kd [3]: 137 nM

B1: ErbB4pY1208 phosphopeptide, unlabeled competitor (peptide)
peptide: NEPL[pY]LNTFANTD
notes: human ErbB4 around Tyr1208; source: synthetic peptide
Ki (GRB2 SH2 domain): 6850 nM

TNHI[pY]SNLANCS [KIT pY936 phosphopeptide, dye-free]
Kd [3]: 4 nM

Rhodamine-NNYV[pY]IDPTQLPD (reading uncertain) [KIT pY570 phosphopeptide, rhodamine-labelled]
Kd [4]: 3830 nM

Rhodamine-QEAN[pY]VPMTPGTD (reading uncertain) [Gab1 pY472 phosphopeptide, rhodamine-labelled]
Kd [5]: 2330 nM | Kd [6]: 255 nM

rhodamine-FGCV[pY]HGTLLDND (reading uncertain) [MET pY1093 phosphopeptide, rhodamine-labelled]
Kd [6]: 2560 nM

FGTV[pY]KGIWIPD [ErbB2-pY735 phosphopeptide, unlabeled competitor]
IC50 (PTK6 SH2 domain [7]): 148000 nM

NNYV[pY]IDPTQLPD [KIT pY570 phosphopeptide, dye-free]
Kd [1]: 1360 nM

QEAN[pY]VPMTPGTD [Gab1 pY472 phosphopeptide, dye-free]
Kd [2]: 251 nM | Kd [3]: 18 nM

B2: ErbB3pY1289 phosphopeptide, rhodamine-labelled (peptide)
peptide: rhodamine-SEQG[pY]EEMRAFQD
modifications: reading uncertain
notes: human ErbB3 around Tyr1289; also called labeled peptide 7; source: synthetic peptide
Kd (PTK6 SH2 domain [8]): 2110 nM

B3: ErbB3pY1260 phosphopeptide, unlabeled competitor (peptide)
peptide: PDED[pY]EYMNRQRD
notes: human ErbB3 around Tyr1260; source: synthetic peptide
Ki (GRB7 SH2 domain): 131 nM

B4: ErbB3pY1197 phosphopeptide, unlabeled competitor (peptide)
peptide: EDEE[pY]EYMNRRRD
notes: human ErbB3 around Tyr1197; source: synthetic peptide
Ki (GRB7 SH2 domain): 113 nM

Rhodamine-DPQD[pY]LLLINCQD (reading uncertain) [Gab1 pY183 phosphopeptide, rhodamine-labelled]
Kd [4]: 2040 nM | Kd [5]: 4260 nM | Kd [6]: 3790 nM

B5: ErbB2pY1139 phosphopeptide, unlabeled competitor (peptide)
peptide: PQPE[pY]VNQPDVRD
notes: human ErbB2 around Tyr1139; source: synthetic peptide
Ki (GRB2 SH2 domain): 1710 nM

Rhodamine-FGTV[pY]KGIWIPD (reading uncertain) [ErbB2-pY735 phosphopeptide, rhodamine-labelled]
Kd (PTK6 SH2 domain [9]): ≥ 20000 nM

FGCV[pY]HGTLLDN [MET pY1093 phosphopeptide, dye-free]
Kd [3]: 3550 nM
